Where a chain is given by its changes, count along the chain named. Numbers in names are those of the source.
T1: extracellular domain of human KLB expressed with C-terminal HA and hexahistidine tags (human, UniProt Q86Z14 1-996)
T1 construct: also called hKLB-HA-6His; hKLB-HA-6his
T1 sequence: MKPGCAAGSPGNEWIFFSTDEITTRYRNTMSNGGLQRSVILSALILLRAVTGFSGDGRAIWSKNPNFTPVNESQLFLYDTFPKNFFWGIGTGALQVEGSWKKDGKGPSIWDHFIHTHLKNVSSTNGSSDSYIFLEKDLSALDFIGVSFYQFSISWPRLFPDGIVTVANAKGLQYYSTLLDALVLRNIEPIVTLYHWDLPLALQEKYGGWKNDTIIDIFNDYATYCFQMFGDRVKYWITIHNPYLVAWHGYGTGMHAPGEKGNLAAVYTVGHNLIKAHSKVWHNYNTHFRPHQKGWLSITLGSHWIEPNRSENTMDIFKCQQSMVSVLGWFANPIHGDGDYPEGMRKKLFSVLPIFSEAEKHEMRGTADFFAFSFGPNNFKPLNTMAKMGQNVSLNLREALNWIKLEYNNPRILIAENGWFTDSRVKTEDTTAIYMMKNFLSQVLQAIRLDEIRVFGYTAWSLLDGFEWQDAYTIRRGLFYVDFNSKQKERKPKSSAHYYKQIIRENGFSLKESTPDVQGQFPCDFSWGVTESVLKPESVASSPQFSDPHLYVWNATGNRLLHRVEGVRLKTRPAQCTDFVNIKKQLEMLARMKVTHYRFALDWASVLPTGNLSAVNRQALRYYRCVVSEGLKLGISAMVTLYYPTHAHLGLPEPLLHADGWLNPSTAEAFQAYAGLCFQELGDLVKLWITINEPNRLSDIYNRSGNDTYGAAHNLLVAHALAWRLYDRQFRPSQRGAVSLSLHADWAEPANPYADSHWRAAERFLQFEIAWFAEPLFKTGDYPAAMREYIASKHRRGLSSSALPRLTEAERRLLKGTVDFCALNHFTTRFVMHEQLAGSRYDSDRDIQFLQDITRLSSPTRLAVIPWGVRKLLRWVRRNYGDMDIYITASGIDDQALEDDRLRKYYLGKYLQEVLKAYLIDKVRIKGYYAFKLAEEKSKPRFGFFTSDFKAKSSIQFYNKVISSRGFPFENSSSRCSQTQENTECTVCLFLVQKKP

T2: extracellular domain of human FGFR1c expressed with C-terminal V5 and hexahistidine tags (human, UniProt P11362 22-376)
T2 construct: also called hFGFR1c-V5-6His
T2 sequence: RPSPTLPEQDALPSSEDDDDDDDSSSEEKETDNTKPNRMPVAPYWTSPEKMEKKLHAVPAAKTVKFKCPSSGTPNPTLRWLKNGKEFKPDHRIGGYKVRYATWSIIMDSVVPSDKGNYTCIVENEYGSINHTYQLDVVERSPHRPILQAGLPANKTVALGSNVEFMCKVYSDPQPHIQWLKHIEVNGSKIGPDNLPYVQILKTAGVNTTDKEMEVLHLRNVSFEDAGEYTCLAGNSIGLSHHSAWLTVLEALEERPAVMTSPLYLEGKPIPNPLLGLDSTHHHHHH

B1: H2aM8109N (antibody, V domains shown)
VH: QVQVVESGGGVVQPGRSLRLSCAASGFTFSSYGLHWVRQAPGKGLEWVAVIWHDGSHKYYADSVKGRFTISRDNSKNTLYLQMNSLRAEDTAVYYCARDGIPVAEDYYFYGMDVWGQGTTVTVSS
VL: DIQMTQSPSSLSASVGDRVTITCRASQGIRNDLGWYQQKPGKAPKRLIYAASSLQSGVPSRFSGSGSGTEFTLTISSLQPEDFAIYYCLQHNSLTFGGGTKVEIK
notes: mouse IgG2 Fc (H2aM prefix)
B2: H1M8115N (antibody, V domains shown)
VH: QVQLVQSGAEVKKPGSSVKVSCKASGGTFSTYEISWVRQAPGQGLEWMGGIIPVFGTTHYAQKFQDSVTITTDESTGTAFMELSSLKSEDTAVYYCARGGAGGDNWGQGTLVTVSS
VL: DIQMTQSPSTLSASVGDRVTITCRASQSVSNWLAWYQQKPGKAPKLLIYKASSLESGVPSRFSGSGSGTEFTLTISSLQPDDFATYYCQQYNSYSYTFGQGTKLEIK
notes: H1M Fc prefix (mouse Fc)
B3: H4H8837P (antibody, V domains shown)
VH: QVQLVESGGGVVQPGRSLRLSCAASGFTFNSYAMHWVRQAPGMGLEWVAVISSDGSNKYYADSVRGRFTVSRDNSKNTLYLQMNSLRSEDTAVYYCAKDGRGYSSFSHFGMDVWGQGTTVTVSS
VL: DIQMTQSPSTLSASVGDRVTITCRASQSIGSWLAWYQQKPGKAPKLLIYKTSSLESGVPSRFSGSGSGTEFTLTISSLQPDDFASYYCQQYNSYSFGQGTKVEIK
notes: human IgG4 Fc (H4H prefix)
B4: H4H8852P (antibody, V domains shown)
VH: QVQLQESGPGLVKPSETLSLTCTVSGGSISSYYWSWIRQPPGKGLEWIGYIYSSGIIKYNPSLKSRVTISADTSKNQFSLKLSSVTAADTAVYYCARHGIFGVMEYFQRWGQGTLVTVSS
VL: DIQMTQSPSSLSASIGDRVTITCQASQDIGNFLNWYQQKPGKAPTLLIYDASNMETGVPSRFSGSGSGTYFTFTISSLQPEDVATYYCQQYDNLPLTFGGGTKVEIK
notes: human IgG4 Fc (H4H prefix)
B5: H4H8856P (antibody, V domains shown)
VH: B4 VH with G49A, S53Y, I57T
VL: B4 VL with G30S, A51V, S67Y, Y70D, F73L, Q79K, V83I, L94I
notes: human IgG4 Fc (H4H prefix)
B6: H4H8871P (antibody, V domains shown)
VH: B4 VH with G27A
VL: B4 VL with Q37H, S63R, T74I
notes: human IgG4 Fc (H4H prefix)
B7: H4H8878P (antibody, V domains shown)
VH: QVQLVESGGGVVQPGRSLRLSCAASGFTLNTYGMHWIRQTPGKGLEWVSLISYDETKEYYVDSVKGRFTISRDNSKNTLYLQMNSVRVEDTAVYYCAKPLTGSTDYYYGLDVWGQGTTVTVSS
VL: DIQMTQSPSYVSASVGDRVIITCRASQDISSWLAWYQQKPGKAPKLLIYVTSSLESGVPSRFSGSGSGTDFTLTISGLQPEDFATYYCQQVKSFPPTFGPGTKVDIK
notes: human IgG4 Fc (H4H prefix)

Target: human KLB and human FGFR1c co-expressed on HEK293/hKLB/hFGFR1c/SRE-luc cells (human, UniProt Q86Z14 1-1044; P11362 22-822)
Experiment: cell-based or functional assay

Row | Binder | IC50, inhibition of 1 nM hFGF21 | Maximum Inhibition (%) of 1 nM hFGF21
1 | B1 | 0.033 nM | 23%
2 | B2 | 0.09 nM | 65%
3 | B3 | 0.08 nM | 51%
4 | B4 | 0.38 nM | 101%
5 | B5 | 0.65 nM | 91%
6 | B6 | 0.38 nM | 92%
7 | B7 | 0.23 nM | 38%

Target: M. fascicularis KLB and human FGFR1c co-expressed on HEK293/MfKLB/hFGFR1c/SRE-Luc cells (M. fascicularis; human, UniProt A0A2K5WB58 1-1044)
Experiment: cell-based or functional assay

Row | Binder | IC50, inhibition of 10 nM mfFGF21 | Maximum Inhibition (%) of 10 nM mfFGF21 | EC50, SRE-luc activation without ligand | Maximum Activation (%) without ligand
8 | B1 | 0.19 nM | 32% |  | 
9 | B2 | 0.03 nM | 47% |  | 
10 | B3 | 0.089 nM | 51% |  | 
11 | B4 | 0.47 nM | 101% | 0.046 nM | 5%
12 | B5 | 0.79 nM | 91% | 0.18 nM | 5%
13 | B6 | 0.39 nM | 92% | 0.13 nM | 4%
14 | B7 | 0.12 nM | 38% |  | 

Target: T1, extracellular domain of human KLB …
Experiment: SPR, mAb captured, 25 C
Method: (§1) Equilibrium dissociation constants (KD values) for human KLB or human FGFR1c binding to purified anti-KLB/FGFR1c monoclonal antibodies were determined using a real-time surface plasmon resonance biosensor using a Biacore T-200 or 4000 instrument. The Biacore sensor surface was derivatized by amine coupling with either a polyclonal rabbit anti-mouse antibody (GE, # BR-1008-38) or with a monoclonal mouse anti-human Fc antibody (GE, # BR-1008-39) to capture anti-KLB/FGFR1c monoclonal antibodies expressed with either a mouse Fc or a human Fc, respectively. All Biacore binding studies were performed in a buffer composed of 0.01M HEPES pH 7.4, 0.15M NaCl, 3mM EDTA, 0.05% v/v Surfactant P20 (HBST running buffer). […] Association of hKLB-HA-6His or hFGFR1c-V5-6His to the captured monoclonal antibody was monitored for 3.5 to 4 minutes and the dissociation of hKLB-HA-6His or hFGFR1c-V5-6His in HBST running buffer was monitored for 8-12 minutes. All the binding kinetics experiments were performed at 25° C. or 37° C. Kinetic association (kₐ) and dissociation (kd) rate constants were determined by fitting the real-time sensorgrams to a 1:1 binding model using Scrubber 2.0c curve fitting software. Binding dissociation equilibrium constants (KD) and dissociative half-lives (t½) were calculated from the kinetic rate constants as: […]

Row | Binder | 20 nM hKLB-HA-6His Bind (RU) | Kd | koff | kon | t1/2
15 | B1 | 21.3 RU | 4.44 nM | 0.000449 s⁻¹ | 101000 M⁻¹ s⁻¹ | 0.428 h
16 | B2 | 77.6 RU | 0.11 nM | 5.02e-05 s⁻¹ | 455000 M⁻¹ s⁻¹ | 3.83 h
17 | B3 | 63 RU | 0.367 nM | 0.000128 s⁻¹ | 350000 M⁻¹ s⁻¹ | 1.5 h
18 | B4 | -0.2 RU |  |  |  | 
19 | B5 | -0.4 RU |  |  |  | 
20 | B6 | -0.7 RU |  |  |  | 
21 | B7 | 28.4 RU | 1.25 nM | 0.000213 s⁻¹ | 170000 M⁻¹ s⁻¹ | 0.905 h

Target: T2, extracellular domain of human FGFR1c …
Experiment: SPR, mAb captured, 25 C
Method: as §1

Row | Binder | 180 nM hFGFR1c-V5-6His Bind (RU) | binding result
22 | B1 | -0.7 RU | 
23 | B2 | -1.8 RU | 
24 | B3 | 0.2 RU | no binding (tested: 180 nM)
25 | B4 | 0 RU | no binding (tested: 180 nM)
26 | B5 | 0.1 RU | no binding (tested: 180 nM)
27 | B6 | 0.4 RU | 
28 | B7 | 0.4 RU | no binding (tested: 180 nM)

Target: T1, extracellular domain of human KLB …
Experiment: SPR, mAb captured, 37 C
Method: as §1

Row | Binder | 20 nM hKLB-HA-6His Bind (RU) | Kd | koff | kon | t1/2
29 | B1 | 36.8 RU | 6.2 nM | 0.00131 s⁻¹ | 211000 M⁻¹ s⁻¹ | 0.147 h
30 | B2 | 118 RU | 0.206 nM | 0.000144 s⁻¹ | 699000 M⁻¹ s⁻¹ | 1.34 h
31 | B3 | 372 RU | 0.401 nM | 0.000128 s⁻¹ | 320000 M⁻¹ s⁻¹ | 1.5 h
32 | B4 | 5.1 RU |  |  |  | 
33 | B5 | -0.5 RU |  |  |  | 
34 | B6 | -0.9 RU |  |  |  | 
35 | B7 | 101 RU | 0.305 nM | 0.000241 s⁻¹ | 790000 M⁻¹ s⁻¹ | 0.8 h

Target: T2, extracellular domain of human FGFR1c …
Experiment: SPR, mAb captured, 37 C
Method: as §1

Row | Binder | 180 nM hFGFR1c-V5-6His Bind (RU)
36 | B1 | 0.7 RU
37 | B2 | 0.4 RU
38 | B3 | 0.1 RU
39 | B4 | 1 RU
40 | B5 | 0.3 RU
41 | B6 | -1.4 RU
42 | B7 | 0.8 RU

— patent publication US20170174769A1 (Regeneron, published 2017)
